From the supplement of paper PMC10201428
± gives the standard deviation of the averaged measurements.

B1: library; a variant is named by its letters at N, in order (parent)
chain: ACATTTGTTGATACAACCATAAAATGATAATTACACCCATAAATTGATAATTATCACACCCANNNNNNNNNNNNNNCTCTGATCATAGTCAGACCAACATTGCTACGACCCGTATTCGCACCGACAC

How the values were obtained:
[1] = variants of: B1; assay: relative integration efficiency (T-RL orientation) vs wild-type transposon end (log2 (normalized fold change)); transposon end mutated: right end (5 bp flank + 75 bp right end); higher = more efficient transposition; conditions: with VchCAST RNA-guided transposition machinery (E. coli BL21(DE3) host, lacZ target)
Experimental: (§1)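 Pooled, barcoded VchCAST (Tn6677) mini-transposon donor libraries; each variable transposon-end sequence sits in a fixed pDonor mini-transposon context (10-bp barcode and cargo not included). Left- or right-end libraries were co-transformed with pEffector (TniQ-Cascade, TnsABC, lacZ crRNA, T7, 0.1 mM IPTG) into E. coli BL21(DE3) and grown 18 h at 37 C. T-LR and T-RL junction amplicons were sequenced; output/input barcode fold change was normalised to the mean of four wild-type barcodes and log2-transformed. Two biological replicates; zero-count/undetected variants carry floor values (-10 / -15), censored here. Barcode uncoupling by PCR recombination adds noise.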

[2] = variants of: B1; assay: relative integration efficiency (T-LR orientation) vs wild-type transposon end (log2 (normalized fold change)); transposon end mutated: right end (5 bp flank + 75 bp right end); higher = more efficient transposition; conditions: with VchCAST RNA-guided transposition machinery (E. coli BL21(DE3) host, lacZ target)
Experimental: as §1

Variant	relative integration efficiency (log2) [1]	relative integration efficiency (log2) [2]
ATTTAACTATAACG A47G	-0.679 ± 0.11	2.25 ± 0.039
TACCTTGATATTGC	1.35 ± 0.074	3.9016 ± 0.0014
TAAATTGATATTGC A58G	-0.236 ± 0.0068	1.32 ± 0.19
TAAATTGATATTGC A58C	-0.461 ± 0.11	1.05 ± 0.17
TAAATTGATATGGC	0.087 ± 0.065	0.317 ± 0.14
